Legend:
[1] = target: T1, transferrin receptor 1 (TfR1) (Homo sapiens, UniProt P02786); assay: Transferrin receptor 1 binding by Surface Plasmon Resonance (SPR, Biacore); details: fluorescein conjugated sample
T1 construct: purchased AbD Serotec 9110-300
Description: The receptor binding capability of the recombinant transferrin variants can be determined by Surface Plasmon Resonance (SPR) analysis. The binding activity of a transferrin sample to a transferrin receptor can be measured using surface plasmon resonance (SPR) a non-invasive optical technique in which the SPR response is a measure of change in mass concentration at the detector surface as molecules bind or dissociate. A sample is sent onto the surface of the sensor chip via a micro flow system at a constant flow rate. In this analysis, if the transferrin sample is able to bind to the Transferrin Receptor the mass on the surface sensor chip is increased due to binding between Transferrin Receptor and Transferrin molecules creating a surface plasmon wave, and a shift of the SPR signal proportional to the binding quantity can be detected as a change in the resonance unit (RU). […]
The binding capacity of human serum transferrin to human trabnsferrin receptor 1 may be measured by SPR. […]
The receptor binding capability of the recombinant transferrin variants was assessed by Surface Plasmon Resonance (SPR) analysis. The binding activity of a transferrin sample to transferrin receptor can be measured using surface plasmon resonance (SPR) a non-invasive optical technique in which the SPR response is a measure of change in mass concentration at the detector surface as molecules bind or dissociate. […]

[2] = system: K562 erythroleukemic cells; assay: 55Fe uptake from labeled diferric transferrin in erythroleukemic K562 cells; format: cell-based, human; details: 25 minutes at 37°C
Method: Human plasma-derived apo-transferrin (Calbiochem 616419, tissue culture grade, pyrogen-free) is supplied lyophilised from 10mM phosphate buffer, pH7.4. The transferrin mutein is expressed, purified and quantified as described above.
For iron-55 uptake from labeled diferric transferrin, K562 erythroleukemic cells, cultured in RPMI cell culture medium under standard conditions (bicarbonate-buffered, 5% (v/v) CO2, antibiotics, 10% (v/v) fetal calf serum) are washed with serum-free medium containing HEPES-buffer and 1 mg/ml of bovine serum albumin and used at a concentration of 10 million cells/ml in this medium. The samples tested are prepared as equimolar concentrations of apo-transferrin mutein. Apo-transferrin mutein is loaded with iron according to a standard procedure (Bates and Schlabach, J Biol Chem, 248, 3228-3232, 1973) using ferric nitrilotriacetate as iron source. Typically 50µl of 1 M NaClO4 is added to 450µl of the transferrin mutein stock-solution (pH is alkaline to neutral). The ^55Fe -NTA-loading-buffer is prepared by mixing 8.5µl 50mM NTA (pH 8.25), 18.9µl 0.1M Tris, 98.8µl Millipore-purified water and 7.5µl ^55FeCl3 in 0.5 N HCl (NEN products). 500µl of transferrin mutein is carefully mixed (dropwise) with the ^55Fe -NTA-loading-buffer and then 310µl of 5mM Hepes. NaOH/0.1M NaClO4 is added. The mixture is incubated at 4°C for 60 min following which it is deslated on a PD-10 column (containing Sephadex G-25) and dialysed. The PD-10 column is equilibrated with 5ml of equilibration buffer (5mM Hepes/NaOH, 0.1M NaClO4, 0.1 g BSA (Amresco)) then washed three times with 5ml of wash buffer (5mM Hepes/NaOH, 0.1M NaClO4). […]
Increasing concentrations of human plasma transferrin or the transferrin mutein sample (0, 25, 100, 200, 400, 800, 1600 nM), labeled with ^55Fe, are mixed with 25 µl of medium. […] The lysates are neutralized with 1 M HCl after overnight lysis, mixed with Readysolv Scintillation cocktail and counted in the Packard Liquid Scintillation Counter. […]

T1 sequence (P02786 whole entry): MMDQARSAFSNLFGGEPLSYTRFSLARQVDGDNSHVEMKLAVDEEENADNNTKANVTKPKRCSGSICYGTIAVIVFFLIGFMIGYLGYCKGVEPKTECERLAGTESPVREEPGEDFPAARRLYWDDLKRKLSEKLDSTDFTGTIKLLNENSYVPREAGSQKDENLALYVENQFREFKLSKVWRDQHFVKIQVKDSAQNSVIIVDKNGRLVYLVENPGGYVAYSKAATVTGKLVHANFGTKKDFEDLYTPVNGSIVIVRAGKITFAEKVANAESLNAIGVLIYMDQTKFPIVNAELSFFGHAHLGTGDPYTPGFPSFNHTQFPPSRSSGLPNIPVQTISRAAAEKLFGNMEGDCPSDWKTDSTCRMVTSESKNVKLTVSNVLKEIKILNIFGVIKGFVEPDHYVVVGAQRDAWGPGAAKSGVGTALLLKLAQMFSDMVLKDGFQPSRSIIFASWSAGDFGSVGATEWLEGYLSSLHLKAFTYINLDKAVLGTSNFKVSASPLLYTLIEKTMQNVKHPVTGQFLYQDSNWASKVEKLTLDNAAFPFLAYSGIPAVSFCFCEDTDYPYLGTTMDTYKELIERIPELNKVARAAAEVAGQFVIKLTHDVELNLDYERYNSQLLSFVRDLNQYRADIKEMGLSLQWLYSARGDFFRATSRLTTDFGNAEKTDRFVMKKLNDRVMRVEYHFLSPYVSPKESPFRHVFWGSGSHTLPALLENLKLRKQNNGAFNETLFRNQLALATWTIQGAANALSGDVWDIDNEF

ability to bind to transferrin receptor 1 (measured by SPR) [1]: able to bind to transferrin receptor 1
B1: Fluorescein conjugated thio-transferrin (S28C, S415A, T613A): Thiotransferrin (S28C, S415A, T613A) conjugated with fluorescein (conjugate, UniProt P02787 20-698, looked up, variant S28C S415A T613A)
Serotransferrin: VPDKTVRWCAVSEHEATKCQSFRDHMKCVIPSDGPSVACVKKASYLDCIRAIAANEADAVTLDAGLVYDAYLAPNNLKPVVAEFYGSKEDPQTFYYAVAVVKKDSGFQMNQLRGKKSCHTGLGRSAGWNIPIGLLYCDLPEPRKPLEKAVANFFSGSCAPCADGTDFPQLCQLCPGCGCSTLNQYFGYSGAFKCLKDGAGDVAFVKHSTIFENLANKADRDQYELLCLDNTRKPVDEYKDCHLAQVPSHTVVARSMGGKEDLIWELLNQAQEHFGKDKSKEFQLFSSPHGKDLLFKDSAHGFLKVPPRMDAKMYLGYEYVTAIRNLREGTCPEAPTDECKPVKWCALSHHERLKCDEWSVNSVGKIECVSAETTEDCIAKIMNGEADAMSLDGGFVYIAGKCGLVPVLAENYNKADNCEDTPEAGYFAIAVVKKSASDLTWDNLKGKKSCHTAVGRTAGWNIPMGLLYNKINHCRFDEFFSEGCAPGSKKDSSLCKLCMGSGLNLCEPNNKEGYYGYTGAFRCLVEKGDVAFVKHQTVPQNTGGKNPDPWAKNLNEKDYELLCLDGTRKPVEEYANCHLARAPNHAVVTRKDKEACVHKILRQQQHLFGSNVADCSGNFCLFRSETKDLLFRDDTVCLAKLHDRNTYEKYLGEEYVKAVGNLRKCSTSSLLEACTFRRP
modifications: fluorescein conjugate
Specific iron ptake Bmax ([2]; 55Fe-labeled sample 0-1600 nM, specific uptake (unspecific binding with hundredfold excess unlabeled diferric transferrin accounted for)): 2430±125 fmol^55Fe/10^6 cells 25min
Total Iron Uptake Bmax ([2]; 55Fe-labeled sample 0-1600 nM, total uptake): 3294±170 fmol^55Fe/10^6 cells x 25min
Kd ([2]; specific uptake, read-out: Specific iron ptake Kd x): 154 ± 32 nM
